Four molecules from patent US20230192831A1 can be followed below.

B1: H4H6252P (antibody, human IgG4, V domains shown)
VH: QVQLVESGGGVVQPGRSLRLSCAASGFTFSNYGMHWVRQAPGRGLEWVAVIWFDGSNKYYADSVKGRFTISRDNSKNTLYLQMNSLRSEDTAVYYCTRDDYGDYDYPFDYWGQGTLVTVSS
VL: DIQMTQSPSSLSASVGDRVTITCRASQGIRNDLGWYQQKPGKAPKRLIYAASSLQSGVPSRFSGSGSGTEFTLTISSLQPEDFATYYCLQYNTYPPFTFGPGTKVDIK
B2: H4H6260P (antibody, human IgG4, V domains shown)
VH: QVQLVESGGGVVQPGRSLRLSCAASGFTFSTYGMHWVRQAPGKGLEWVAIIWYDGSNYYYADSVKGRFTISRDNSKNTLYLQMNSLRAEDTAVYYCAREDRNDVFDIWGQGTMVTVSS
VL: EIVLTQSPATLSLSPGERATLSCRASQSVSSFLAWYQQKPGQAPRLLIYDSSNRATGIPARFSGSGSGTDFTLTISSLEPEDFAVYYCQQLSNWPPITFGQGTRLEIK
B3: H4H6251P (antibody, human IgG4, V domains shown)
VH: QVQLVESGGGVVQPGKSLRLSCAASGFTFSRYGMHWVRQAPGKGLEWVAVIWYDGSNKYYADSVKGRFTISRDNSKNTLYLQMNSLRADDTAMYYCARDDYGDSPGFDFWGQGTLVTVSS
VL: EIVMTQSPATLSVSPGERATLSCRASQSVSSNLAWYQQKPGQAPRLLIYDASTRATGIPARFSGTGSGTEFTLTISSLQSEDFALYYCQQYDDWPPWTFGQGTKVEIK
B4: H4H6270P (antibody, human IgG4, V domains shown)
VH: QVQLVESGGDVVQPGRSLRLSCAASGFTFSSYGMHWVRQAPGKGLEWVAIIWNDGSNKYYTDSVKGRFTISRDNSKNTLYLQMNGLRAEDTAIYYCARDQDQFDYWGQGTLVTVSS
VL: B3 VL with V29I, S31T, Q37R, T65S, E70D, L85V, D92S, D93N, W97Y, V105L

Residue numbers refer to the chain shown, from its start.

Sequence of recombinant human GREM1 (hGREM1-His; C-terminal 10His tagged, R&D, #5190-GR) (human) (O60565 other isoform, or with tags, fused parts or gaps limits assumed, form in doubt): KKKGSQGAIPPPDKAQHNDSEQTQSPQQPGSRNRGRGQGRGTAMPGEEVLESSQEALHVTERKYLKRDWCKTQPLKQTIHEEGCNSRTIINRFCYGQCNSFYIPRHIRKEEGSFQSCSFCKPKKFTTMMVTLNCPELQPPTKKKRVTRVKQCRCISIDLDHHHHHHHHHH

The first assay has as its target recombinant human GREM1 (hGREM1-His; C-terminal 10His tagged, R&D, #5190-GR) (human) (UniProt O60565). The assay can be described thus: cell-based or functional assay.
With B1, the IC50 [M], W-20-17/BRE-luc luciferase bioassay, 100 pM hBMP4 and 10 nM hGREM1-His is 8.2e-10 M; the hGREM1-His Inhibition IC50, M; W-20-17 cell differentiation assay (alkaline phosphatase) is 6.1 nM.
The matching figures for B2: 4.6e-10 M and 3.3 nM.
In the same order, the values of B3 are 6.3e-10 M and 11 nM.
B4: the IC50 [M], W-20-17/BRE-luc luciferase bioassay, 100 pM hBMP4 and 10 nM hGREM1-His amounted to 5.4e-10 M; the hGREM1-His Inhibition IC50, M; W-20-17 cell differentiation assay (alkaline phosphatase) came to 3.1 nM.

A further assay shares this target. The experiment in a line: BLI Octet, captured mAb, 100 nM GREM1. (In BLI a coated tip is dipped into the sample, and binding shifts an interference pattern.)
With B1, the Binding Signal with 30 sec Association (nm) came out at 0.23 nm and the Binding Signal with 300 sec Association (nm) was determined as 0.44 nm.
The matching figures for B2: 0.24 nm and 0.42 nm.
The matching figures for B3: 0.27 nm and 0.45 nm.
In the same order, the values of B4 are 0.2 nm and 0.39 nm.

The target is the same in a further assay. The assay can be described thus: BLI Octet, captured mAb, 100 nM GREM1 + 5 uM heparin.
For B1, the Binding Signal with 30 sec Association (nm) turned out to be 0.04 nm and the Binding Signal with 300 sec Association (nm) came to 0.35 nm.
In the same order, the values of B2 are 0.07 nm and 0.37 nm.
In the same order, the values of B3 are 0.03 nm and 0.36 nm.
The matching figures for B4: 0.05 nm and 0.33 nm.

The target is the same in a further assay. The experiment in a line: BLI Octet, captured mAb, 100 nM GREM1 without vs with 5 uM heparin.
Take B1: the Reduction in Signal from Heparin at 30 sec amounted to 0.19 nm and the Reduction in Signal from Heparin at 300 sec was found to be 0.09 nm.
Turning to B2, the Reduction in Signal from Heparin at 30 sec was found to be 0.17 nm and the Reduction in Signal from Heparin at 300 sec came out at 0.05 nm.
The matching figures for B3: 0.24 nm and 0.09 nm.
In the same order, the values of B4 are 0.15 nm and 0.06 nm.
